# Columns and labels:
# [1] = molecular target: HLA-B*07:02; assay: IEDB peptide-MHC binding, purified MHC/competitive/fluorescence; filed as Kd, often an IC50 or EC50 that approximates it; ≥ and ≤ were set here for values at or beyond the usual limits of such assays
# [2] = molecular target: HLA-B*08:01; assay: as above
# [3] = molecular target: HLA-B*15:01; assay: as above
# [4] = molecular target: HLA-B*51:01; assay: as above
# [5] = molecular target: HLA-A*02:01; assay: IEDB peptide-MHC binding, purified MHC/direct/fluorescence; filed as Kd, often an IC50 or EC50 that approximates it; ≥ and ≤ were set here for values at or beyond the usual limits of such assays; conditions: source organism: Yersinia pestis
# [6] = molecular target: HLA-A*02:11; assay: as above; conditions: source organism: Yersinia enterocolitica subsp. enterocolitica 8081
# [7] = molecular target: HLA-A*69:01; assay: as above; conditions: source organism: Yersinia pestis
# [8] = molecular target: HLA-A*02:50; assay: IEDB peptide-MHC binding, purified MHC/competitive/fluorescence; filed as Kd, often an IC50 or EC50 that approximates it; ≥ and ≤ were set here for values at or beyond the usual limits of such assays; conditions: source organism: Yersinia pestis Nepal516
# [9] = molecular target: HLA-B*58:01; assay: as above; conditions: source organism: Escherichia coli
# [10] = molecular target: HLA-A*02:01; assay: as above; conditions: source organism: Burkholderia mallei SAVP1
# [11] = molecular target: HLA-A*02:03; assay: as above; conditions: source organism: Burkholderia mallei SAVP1
# [12] = molecular target: HLA-A*02:11; assay: as above; conditions: source organism: Burkholderia mallei SAVP1
# [13] = molecular target: HLA-A*02:12; assay: as above; conditions: source organism: Burkholderia mallei SAVP1
# [14] = molecular target: HLA-A*02:16; assay: as above; conditions: source organism: Burkholderia mallei SAVP1
# [15] = molecular target: HLA-A*02:19; assay: as above; conditions: source organism: Burkholderia mallei SAVP1
# [16] = molecular target: HLA-A*03:01; assay: as above; conditions: source organism: Burkholderia mallei SAVP1
# [17] = molecular target: HLA-A*23:01; assay: as above; conditions: source organism: Burkholderia mallei SAVP1
# [18] = molecular target: HLA-A*24:03; assay: as above; conditions: source organism: Burkholderia mallei SAVP1
# [19] = molecular target: HLA-A*26:01; assay: as above; conditions: source organism: Burkholderia mallei SAVP1
# [20] = molecular target: HLA-A*29:02; assay: as above; conditions: source organism: Burkholderia mallei SAVP1
# [21] = molecular target: HLA-A*31:01; assay: as above; conditions: source organism: Burkholderia mallei SAVP1
# [22] = molecular target: HLA-A*68:02; assay: as above; conditions: source organism: Burkholderia mallei SAVP1
# [23] = molecular target: HLA-A*69:01; assay: as above; conditions: source organism: Burkholderia mallei SAVP1
# [24] = molecular target: HLA-B*15:17; assay: as above; conditions: source organism: Burkholderia mallei SAVP1
# [25] = molecular target: HLA-B*18:01; assay: as above; conditions: source organism: Burkholderia mallei SAVP1
# [26] = molecular target: HLA-B*27:03; assay: as above; conditions: source organism: Burkholderia mallei SAVP1
# [27] = molecular target: HLA-B*39:01; assay: as above; conditions: source organism: Burkholderia mallei SAVP1
# [28] = molecular target: HLA-B*46:01; assay: as above; conditions: source organism: Burkholderia mallei SAVP1
# [29] = molecular target: HLA-B*57:01; assay: as above; conditions: source organism: Burkholderia mallei SAVP1
# [30] = source organism: Salmonella enterica subsp. enterica serovar Paratyphi B str. SPB7
# [31] = source organism: Escherichia coli
# [32] = source organism: Burkholderia mallei SAVP1
sequence,measurement,setting,value
LPLAKPMVI,Kd,[1]; [30],0.0624 µM
same,Kd,[2]; [30],0.211 µM
same,Kd,[3]; [30],≥ 20 µM
same,Kd,[4]; [30],0.626 µM
FLRFGDFKL,Kd,[5],0.0055 µM
same,Kd,[6],0.104 µM
same,Kd,[7],18.3 µM
same,Kd,[8],≤ 0.0001 µM
RAAPLMQSL,Kd,[1]; [31],0.012 µM
same,Kd,[2]; [31],≥ 20 µM
same,Kd,[9],0.0293 µM
RFNAIWFNH,Kd,[10],≥ 20 µM
same,Kd,[11],≥ 20 µM
same,Kd,[12],≥ 20 µM
same,Kd,[13],≥ 20 µM
same,Kd,[14],≥ 20 µM
same,Kd,[15],≥ 20 µM
same,Kd,[16],≥ 20 µM
same,Kd,[17],≥ 20 µM
same,Kd,[18],≥ 20 µM
same,Kd,[19],≥ 20 µM
same,Kd,[20],≥ 20 µM
same,Kd,[21],0.0041 µM
same,Kd,[22],≥ 20 µM
same,Kd,[23],≥ 20 µM
same,Kd,[3]; [32],≥ 20 µM
same,Kd,[24],≥ 20 µM
same,Kd,[25],≥ 20 µM
same,Kd,[26],≥ 20 µM
same,Kd,[27],≥ 20 µM
same,Kd,[28],≥ 20 µM
same,Kd,[4]; [32],≥ 20 µM
same,Kd,[29],≥ 20 µM
